Reference: paper PMC3182218, “Obesity Risk Gene TMEM18 Encodes a Sequence-Specific DNA-Binding Protein”

Target: TMEM18 (UniProt Q96B42 1-140)
Assay: EMSA; 400 nM probe; EMSA: 10 mM Tris pH 7.4, 50 mM KCl, 1 mM DTT, 0.05% DDM, 30 min, RT; 4-20% TBE gel in 0.5x TBE
Settings: protein: recombinant, tags: N-terminal Flag-His8, blunt

Sequence of TMEM18 (Q96B42 whole entry): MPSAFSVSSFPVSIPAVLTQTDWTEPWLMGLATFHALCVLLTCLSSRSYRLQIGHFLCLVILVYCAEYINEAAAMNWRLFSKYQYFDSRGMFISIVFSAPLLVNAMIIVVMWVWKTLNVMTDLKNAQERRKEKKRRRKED

B1: biotin-(GCT)8 (dsDNA)
DNA 1: GCTGCTGCTGCTGCTGCTGCTGCT
DNA 2: AGCAGCAGCAGCAGCAGCAGCAGC
label: 5' biotin on (GCT)8 strand
  binding result: binds

B2: biotin-(GTG)8 (dsDNA)
DNA 1: GTGGTGGTGGTGGTGGTGGTGGTG
DNA 2: CACCACCACCACCACCACCACCAC
label: 5' biotin on (GTG)8 strand
  binding result: no binding
